Measured values published in patent US10098870B2 (JENKEM TECHNOLOGY CO., LTD. (BEIJING), priority 2013, dated 2018).

What was measured:
[1] = Body weight, survival and tolerance of mice bearing plc/prf/5 (Example 6); assay type: in vivo, nude mouse; conditions: mean ± SE
Text: Wherein QW×4W represents intravenous injection once a week for 4 weeks, BIW×4W represents intravenous injection […] for 4 weeks, the same below. (2) Experimental Results

[2] = Body weight, survival and tolerance of mice bearing Hep3B (Example 7); assay type: in vivo, mouse; conditions: mean ± SE
[3] = Body weight, survival and tolerance of mice bearing H460 (Example 8); conditions: mean ± SE
Method: 5.0×10^6 of H460 tumor cells were suspended in 0.1 ml of PBS, inoculated to each nude mouse at the right shoulder, and there were totally 34 mice inoculated. 8 days later the mean tumor volume was desired to reach about 143 mm^3, the mice with a smaller or larger tumor were removed and the remaining 24 mice were divided into groups randomly according to tumor volume and administrated.

[4] = Body weight, survival and tolerance of mice bearing A549 (Example 10); conditions: mean ± SE;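 note: nude mice, each given 1.0×10^7 A549 tumor cells in the right shoulder region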
Method: 1.0×10^7 of A549 tumor cells were suspended in 0.1 ml of PBS, inoculated to each nude mouse at the right shoulder, and there were totally 36 mice inoculated.

[5] = Body weight, survival and tolerance of mice bearing Calu-6 (Example 9); conditions: day 14 after inoculation, mean ± SE;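 note: nude mice bearing Calu-6 tumours, established by implanting 5.0×10^6 cells at the right shoulder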
Method: 5.0×10^6 of Calu-6 tumor cells were suspended in 0.1 ml of PBS, inoculated to each nude mouse at the right shoulder, and there were totally 34 mice inoculated.

[6] = day 20 after inoculation, 30 mg/kg i.v. BIW×4W
[7] = day 20 after inoculation, 45 mg/kg i.v. QW×4W
[8] = day 24 after inoculation, 30 mg/kg i.v. BIW×4W
[9] = day 24 after inoculation, 45 mg/kg i.v. QW×4W
[10] = day 27 after inoculation, 30 mg/kg i.v. BIW×4W
[11] = day 27 after inoculation, 45 mg/kg i.v. QW×4W
[12] = day 31 after inoculation, 30 mg/kg i.v. BIW×4W
[13] = day 31 after inoculation, 45 mg/kg i.v. QW×4W
[14] = day 34 after inoculation, 30 mg/kg i.v. BIW×4W
[15] = day 34 after inoculation, 45 mg/kg i.v. QW×4W
[16] = day 38 after inoculation, 30 mg/kg i.v. BIW×4W
[17] = day 38 after inoculation, 45 mg/kg i.v. QW×4W

Substance: monomethoxy polyethylene glycol (20K)-glutamic acid dipeptide-rapamycin conjugate [LPR-2]
- Body weight of animal ([1]; day 10 after inoculation, 30 mg/kg i.v. BIW×4W): 19.9 ± 0.5 g
- Body weight of animal ([1]; day 10 after inoculation, 45 mg/kg i.v. QW×4W): 19.8 ± 0.5 g
- Body weight of animal ([1]; day 13 after inoculation, 30 mg/kg i.v. BIW×4W): 19.6 ± 0.8 g
- Body weight of animal ([1]; day 13 after inoculation, 45 mg/kg i.v. QW×4W): 18.9 ± 0.5 g
- Body weight of animal ([1]; day 17 after inoculation, 30 mg/kg i.v. BIW×4W): 20.7 ± 0.7 g
- Body weight of animal ([1]; day 17 after inoculation, 45 mg/kg i.v. QW×4W): 20.2 ± 0.3 g
- Body weight of animal [1, 6]: 20.4 ± 0.6 g
- Body weight of animal [1, 7]: 19.7 ± 0.3 g
- Body weight of animal [1, 8]: 20.6 ± 0.7 g
- Body weight of animal [1, 9]: 21.1 ± 0.3 g
- Body weight of animal [1, 10]: 20.5 ± 0.6 g
- Body weight of animal [1, 11]: 20.7 ± 0.2 g
- Body weight of animal [1, 12]: 20.1 ± 0.6 g
- Body weight of animal [1, 13]: 21.0 ± 0.2 g
- Body weight of animal [1, 14]: 19.5 ± 0.6 g
- Body weight of animal [1, 15]: 19.7 ± 0.5 g
- Body weight of animal [1, 16]: 19.8 ± 0.7 g
- Body weight of animal [1, 17]: 20.7 ± 0.3 g
- Body weight of animal ([2]; day 16 after inoculation, 30 mg/kg i.v. BIW×4W): 20.2 ± 0.6 g
- Body weight of animal ([2]; day 16 after inoculation, 45 mg/kg i.v. QW×4W): 19.2 ± 0.5 g
- Body weight of animal [2, 6]: 19.7 ± 0.4 g
- Body weight of animal [2, 7]: 18.6 ± 0.4 g
- Body weight of animal ([2]; day 23 after inoculation, 30 mg/kg i.v. BIW×4W): 20.4 ± 0.5 g
- Body weight of animal ([2]; day 23 after inoculation, 45 mg/kg i.v. QW×4W): 18.6 ± 0.4 g
- Body weight of animal [2, 10]: 19.7 ± 0.5 g
- Body weight of animal [2, 11]: 17.9 ± 0.4 g
- Body weight of animal ([2]; day 30 after inoculation, 30 mg/kg i.v. BIW×4W): 19.1 ± 0.5 g
- Body weight of animal ([2]; day 30 after inoculation, 45 mg/kg i.v. QW×4W): 18.2 ± 0.4 g
- Body weight of animal [2, 14]: 19.1 ± 0.6 g
- Body weight of animal [2, 15]: 18.2 ± 0.4 g
- Body weight of animal ([2]; day 37 after inoculation, 30 mg/kg i.v. BIW×4W): 18.6 ± 0.4 g
- Body weight of animal ([2]; day 37 after inoculation, 45 mg/kg i.v. QW×4W): 18.0 ± 0.3 g
- Body weight of animal ([2]; day 41 after inoculation, 30 mg/kg i.v. BIW×4W): 17.9 ± 0.3 g
- Body weight of animal ([2]; day 41 after inoculation, 45 mg/kg i.v. QW×4W): 16.7 ± 0.5 g
- Body weight of animal ([2]; day 44 after inoculation, 30 mg/kg i.v. BIW×4W): 17.3 ± 0.3 g
- Body weight of animal ([2]; day 44 after inoculation, 45 mg/kg i.v. QW×4W): 17.1 ± 0.4 g
- Body weight of animal ([3]; day 8 after inoculation, 30 mg/kg i.v. BIW×3W): 20.5 ± 0.5 g
- Body weight of animal ([3]; day 8 after inoculation, 45 mg/kg i.v. QW×3W): 20.2 ± 0.4 g
- Body weight of animal ([3]; day 12 after inoculation, 30 mg/kg i.v. BIW×3W): 20.3 ± 0.5 g
- Body weight of animal ([3]; day 12 after inoculation, 45 mg/kg i.v. QW×3W): 19.8 ± 0.3 g
- Body weight of animal ([3]; day 15 after inoculation, 30 mg/kg i.v. BIW×3W): 20.7 ± 0.4 g
- Body weight of animal ([3]; day 15 after inoculation, 45 mg/kg i.v. QW×3W): 20.9 ± 0.3 g
- Body weight of animal ([3]; day 19 after inoculation, 30 mg/kg i.v. BIW×3W): 21.0 ± 0.5 g
- Body weight of animal ([3]; day 19 after inoculation, 45 mg/kg i.v. QW×3W): 20.7 ± 0.3 g
- Body weight of animal ([3]; day 22 after inoculation, 30 mg/kg i.v. BIW×3W): 20.7 ± 0.4 g
- Body weight of animal ([3]; day 22 after inoculation, 45 mg/kg i.v. QW×3W): 20.4 ± 0.3 g
- Body weight of animal ([3]; day 26 after inoculation, 30 mg/kg i.v. BIW×3W): 20.9 ± 0.5 g
- Body weight of animal ([3]; day 26 after inoculation, 45 mg/kg i.v. QW×3W): 21.4 ± 0.3 g
- Body weight of animal ([3]; day 29 after inoculation, 30 mg/kg i.v. BIW×3W): 21.1 ± 0.4 g
- Body weight of animal ([3]; day 29 after inoculation, 45 mg/kg i.v. QW×3W): 22.1 ± 0.3 g
- Body weight of animal [4, 8]: 21.6 ± 0.5 g
- Body weight of animal [4, 9]: 20.9 ± 0.3 g
- Body weight of animal ([4]; day 28 after inoculation, 30 mg/kg i.v. BIW×4W): 20.9 ± 0.4 g
- Body weight of animal ([4]; day 28 after inoculation, 45 mg/kg i.v. QW×4W): 20.8 ± 0.1 g
- Body weight of animal [4, 12]: 21.4 ± 0.4 g
- Body weight of animal [4, 13]: 21.1 ± 0.2 g
- Body weight of animal ([4]; day 35 after inoculation, 30 mg/kg i.v. BIW×4W): 21.8 ± 0.4 g
- Body weight of animal ([4]; day 35 after inoculation, 45 mg/kg i.v. QW×4W): 21.1 ± 0.3 g
- Body weight of animal [4, 16]: 21.6 ± 0.4 g
- Body weight of animal [4, 17]: 21.6 ± 0.3 g
- Body weight of animal ([4]; day 42 after inoculation, 30 mg/kg i.v. BIW×4W): 22.5 ± 0.3 g
- Body weight of animal ([4]; day 42 after inoculation, 45 mg/kg i.v. QW×4W): 22.0 ± 0.3 g
- Body weight of animal ([4]; day 45 after inoculation, 30 mg/kg i.v. BIW×4W): 22.2 ± 0.3 g
- Body weight of animal ([4]; day 45 after inoculation, 45 mg/kg i.v. QW×4W): 22.4 ± 0.3 g
- Body weight of animal ([4]; day 49 after inoculation, 30 mg/kg i.v. BIW×4W): 22.0 ± 0.3 g
- Body weight of animal ([4]; day 49 after inoculation, 45 mg/kg i.v. QW×4W): 21.5 ± 0.3 g
- Body weight of animal ([4]; day 52 after inoculation, 30 mg/kg i.v. BIW×4W): 22.0 ± 0.3 g
- Body weight of animal ([4]; day 52 after inoculation, 45 mg/kg i.v. QW×4W): 22.1 ± 0.3 g
- Body weight of animal ([5]; 30 mg/kg i.v. BIW×4W): 20.9 ± 0.4 g
- Body weight of animal ([5]; 45 mg/kg i.v. QW×4W): 20.6 ± 0.4 g
